The text below walks through data of the supplement of paper PMC5998384.

Data set [1] concerns HeLa Kyoto. Nature of the data set: solubility in G1/S (NP-40 vs SDS abundance) (log2 ratio); higher = more soluble. The following applies: cell cycle stage: G1/S.
The subject of data set [2] is HeLa Kyoto. The experiment in a line: melting temperature (median over replicates), in situ; higher = more thermally stable.
The test system of data set [3] is HeLa Kyoto. The experiment in a line: solubility change mitosis vs G1/S (difference of NP-40 vs SDS log2 ratios) (log2 ratio difference); higher = more soluble in mitosis.
Data set [4] concerns HeLa Kyoto. The experiment in a line: thermal stability score vs G1/S (z-score of summed log2 fold changes over temperatures); higher = more thermally stable than in G1/S.
[5] abbreviates: cell cycle stage: early G1 (4.5 h after nocodazole release).
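Throughout, for melting temperature (median over replicates), in situ: HeLa Kyoto cells synchronized by double thymidine or nocodazole block, proteins quantified by TMT10plex mass spectrometry, three independent biological replicates.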
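Throughout, for solubility change mitosis vs G1/S (difference of NP-40 vs SDS log2 ratios): synchronized HeLa Kyoto cells (double thymidine block for G1/S, nocodazole release for mitosis), protein amounts in NP-40 versus SDS lysates quantified by mass spectrometry, three biological replicates.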
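Throughout, for solubility in G1/S (NP-40 vs SDS abundance): HeLa Kyoto cells arrested at G1/S by double thymidine block, proteins quantified by TMT10plex mass spectrometry in mild NP-40 versus SDS extracts, three biological replicates.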
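Throughout, for thermal stability score vs G1/S (z-score of summed log2 fold changes over temperatures): synchronized HeLa Kyoto cells, proteins quantified by TMT10plex mass spectrometry, three biological replicates, mitosis taken 0.5 h after nocodazole release, G1/S directly after double thymidine block.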

Turning to “MAGGMKVAVSPAVGPGPWGSGVGGGGTVRLLLILSGCLVYGTAETDVNVVMLQESQVCEKRASQQFCYTNVLIPKWHDIWTRIQIRVNSSRLVRVTQVENEEKLKELEQFSIWNFFSSFLKEKLNDTYVNVGLYSTKTCLKVEIIEKDTKYSVIVIRRFDPKLFLVFLLGLMLFFCGDLLSRSQIFYYSTGMTVGIVASLLIIIFILSKFMPKKSPIYVILVGGWSFSLYLIQLVFKNLQEIWRCYWQYLLSYVLTVGFMSFAVCYKYGPLENERSINLLTWTLQLMGLCFMYSGIQIPHIALAIIIIALCTKNLEHPIQWLYITCRKVCKGAEKPVPPRLLTEEEYRIQGEVETRKALEELREFCNSPDCSAWKTVSRIQSPKRFADFVEGSSHLTPNEVSVHEQEYGLGSIIAQDEIYEEASSEEEDSYSRCPAITQNNFLT [NEMP1]”, in the data set with HeLa Kyoto [1], the “solubility in G1/S (log2)” value is 0.0297. Besides, the figures for the melting temperature with HeLa Kyoto [2] (cell cycle stage: G1/S) and in the data set on HeLa Kyoto [2] (cell cycle stage: mitosis) were 53.8 °C and 54.5 °C, respectively. For the same sequence, the “solubility change mitosis (log2)” value in the data set on HeLa Kyoto [3] is 0.0939. Besides, the thermal stability score in the data set on HeLa Kyoto [4] (setting [5]) stood at 1.73; with HeLa Kyoto [4] (cell cycle stage: mitosis), 6.13.
As for “MEELSADEIRRRRLARLAGGQTSQPTTPLTSPQRENPPGPPIAASAPGPSQSLGLNVHNMTPATSPIGASGVAHRSQSSEGVSSLSSSPSNSLETQSQSLSRSQSMDIDGVSCEKSMSQVDVDSGIENMEVDENDRREKRSLSDKEPSSGPEVSEEQALQLVCKIFRVSWKDRDRDVIFLSSLSAQFKQNPKEVFSDFKDLIGQILMEVLMMSTQTRDENPFASLTATSQPIAAAARSPDRNLLLNTGSNPGTSPMFCSVASFGASSLSSLYESSPAPTPSFWSSVPVMGPSLASPSRAASQLAVPSTPLSPHSAASGTAAGSQPSSPRYRPYTVTHPWASSGVSILSSSPSPPALASSPQAVPASSSRQRPSSTGPPLPPASPSATSRRPSSLRISPSLGASGGASNWDSYSDHFTIETCKETDMLNYLIECFDRVGIEEKKAPKMCSQPAVSQLLSNIRSQCISHTALVLQGSLTQPRSLQQPSFLVPYMLCRNLPYGFIQELVRTTHQDEEVFKQIFIPILQGLALAAKECSLDSDYFKYPLMALGELCETKFGKTHPVCNLVASLRLWLPKSLSPGCGRELQRLSYLGAFFSFSVFAEDDVKVVEKYFSGPAITLENTRVVSQSLQHYLELGRQELFKILHSILLNGETREAALSYMAAVVNANMKKAQMQTDDRLVSTDGFMLNFLWVLQQLSTKIKLETVDPTYIFHPRCRITLPNDETRVNATMEDVNDWLTELYGDQPPFSEPKFPTECFFLTLHAHHLSILPSCRRYIRRLRAIRELNRTVEDLKNNESQWKDSPLATRHREMLKRCKTQLKKLVRCKACADAGLLDESFLRRCLNFYGLLIQLLLRILDPAYPDITLPLNSDVPKVFAALPEFYVEDVAEFLFFIVQYSPQALYEPCTQDIVMFLVVMLCNQNYIRNPYLVAKLVEVMFMTNPAVQPRTQKFFEMIENHPLSTKLLVPSLMKFYTDVEHTGATSEFYDKFTIRYHISTIFKSLWQNIAHHGTFMEEFNSGKQFVRYINMLINDTTFLLDESLESLKRIHEVQEEMKNKEQWDQLPRDQQQARQSQLAQDERVSRSYLALATETVDMFHILTKQVQKPFLRPELGPRLAAMLNFNLQQLCGPKCRDLKVENPEKYGFEPKKLLDQLTDIYLQLDCARFAKAIADDQRSYSKELFEEVISKMRKAGIKSTIAIEKFKLLAEKVEEIVAKNARAEIDYSDAPDEFRDPLMDTLMTDPVRLPSGTIMDRSIILRHLLNSPTDPFNRQTLTESMLEPVPELKEQIQAWMREKQNSDH [UBE4B]”, the “solubility in G1/S (log2)” value with HeLa Kyoto [1] was -0.0721. Also, the melting temperature with HeLa Kyoto [2] (cell cycle stage: G1/S) stood at 51.3 °C; in the data set with HeLa Kyoto [2] (cell cycle stage: mitosis) it was 51.8 °C. For the same sequence, the “solubility change mitosis (log2)” value in the data set on HeLa Kyoto [3] was -0.0982. The values for the thermal stability score with HeLa Kyoto [4] (setting [5]) and in the data set with HeLa Kyoto [4] (cell cycle stage: mitosis) were 1.2 and 2.15, respectively.
On to “MAVYRAALGASLAAARLLPLGRCSPSPAPRSTLSGAAMEPAPRWLAGLRFDNRALRALPVEAPPPGPEGAPSAPRPVPGACFTRVQPTPLRQPRLVALSEPALALLGLGAPPAREAEAEAALFFSGNALLPGAEPAAHCYCGHQFGQFAGQLGDGAAMYLGEVCTATGERWELQLKGAGPTPFSRQADGRKVLRSSIREFLCSEAMFHLGVPTTRAGACVTSESTVVRDVFYDGNPKYEQCTVVLRVASTFIRFGSFEIFKSADEHTGRAGPSVGRNDIRVQLLDYVISSFYPEIQAAHASDSVQRNAAFFREVTRRTARMVAEWQCVGFCHGVLNTDNMSILGLTIDYGPFGFLDRYDPDHVCNASDNTGRYAYSKQPEVCRWNLRKLAEALQPELPLELGEAILAEEFDAEFQRHYLQKMRRKLGLVQVELEEDGALVSKLLETMHLTGADFTNTFYLLSSFPVELESPGLAEFLARLMEQCASLEELRLAFRPQMDPRQLSMMLMLAQSNPQLFALMGTRAGIARELERVEQQSRLEQLSAAELQSRNQGHWADWLQAYRARLDKDLEGAGDAAAWQAEHVRVMHANNPKYVLRNYIAQNAIEAAERGDFSEVRRVLKLLETPYHCEAGAATDAEATEADGADGRQRSYSSKPPLWAAELCVTUSS [SELO]”, for which the “solubility in G1/S (log2)” value with HeLa Kyoto [1] was -0.0646. Also, the melting temperature with HeLa Kyoto [2] (cell cycle stage: G1/S) was determined as 47.8 °C; in the data set on HeLa Kyoto [2] (cell cycle stage: mitosis), 49.1 °C. Further, in the data set with HeLa Kyoto [3], the “solubility change mitosis (log2)” value was -0.115. The thermal stability score turned out to be 3 in the data set on HeLa Kyoto [4] (setting [5]) and 3.57 with HeLa Kyoto [4] (cell cycle stage: mitosis).
